Source: the nanobody polyreactivity screen of Harvey et al. (2022)

Experiment: yeast display, Sf9 membrane polyspecificity reagent, FACS + sequencing; frameworks hold sequencing errors
In short: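 A nanobody's polyreactivity label depends on the gate it was sorted from. Yeast display cells were stained with 10% biotinylated, detergent-solubilized Sf9 membrane reagent for 1 hour at 4 °C, enriched on streptavidin microbeads and sorted by FACS. The low and high (top ~1%) gates were set on anti-HA fluorescence for expression and streptavidin fluorescence for reagent binding.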

Row | Sequence | polyreactivity (PSR sort gate)
1 | QVQLVESGGGLVQAGGSLRLSCAASGRTFISYAMGWYRQAPGKERELVAGISRGGSTYYADSVKGRFTISRDNAMNTVYLQMNRLKPEDTAVYYCAARRWISSHSYKYGYWGQGTQVTVSS | high polyreactivity
2 | QVQLVESGGGLVQAGGSLRLSCASSGRIFSQNAMGWYRQAPGKERELVAAISGGSTNYADSVKGRFTISRDNAKNPVYLQMNSLKPEDTAVYYCAADAPFKMDYWGQGTQVTVSS | low polyreactivity
3 | QVQLVESGGGLVQAGGSLRLSCAASGSIFTRNAMGWSRQAPGKEREFVAAISSSGVSTYYADSVKGRFTISRDNAKNTVYLQMNSLKPEDTAVYYCAARWGTKSGRYDYWGQGTQVTVSS | high polyreactivity
4 | QVQLVESGGGLVQAGGSLRLSCAASGGIFPGYAMGWYRQAPGKERELVAAISGSGSSTYYADSVKGRFTISRDNAKNTVYLQMNSLKPEDTAVYYCAVYYTRGYDYWGQGTQVTVSS | high polyreactivity
5 | QVQLVESGGGLVQAGGSLRLSCAASGSIFWYYAMGWYRQAPGKERELVAAISGSGTRTYYADSVKGRFTISRDNAKNTVYLQMNSLKPEDTAVYYCAATAVRQSGRYLSSSGYDYWGQGTQVTVSS | high polyreactivity
6 | QVQLVESGGGLVQAGGSLRLSCAASGSIFAGYAMGWYRQAPGKERELVAAISSSGGRTYYADSVKGRFTISRDNAKNTVYLQMNSLKPVDTAVYYCAVSTYEEEYWGQGTQVTVSS | high polyreactivity
7 | QVQLVESGGGLVQAGGSLRLSCAASGIIFWHYAMGMYRQAPGKERELVADISRRGGSTYYADSVKGRFTISRDNAKNTVYLQINSLKPEDNAVYYCAARYHPGGYDSWGQGTQVTVSS | low polyreactivity
8 | QVQLVESGGGLVQAGGSLRLSCAASGRILSRYVMGWYRQAPGKERELVAAISGRATSTYYADSVKGRFTISRDNAKNTVYLQMNSLKPEDTAVYYCATGYKTYAVTLYDYWGQGTQVTVSS | high polyreactivity
9 | QVQLVESGRGLVQAGGSLRLTGAASGRIFGLYAMGWYRHAPGKERELVAAISRRGGTTYYADSVQGRFTISRDNAKNTVDLQMNSLKPEDTAVYYCAAATVYLSWYYWGQGTQVTVSS | high polyreactivity
10 | QVQLVESGGGLVQAGGSLRLSCAASGSIFAHNAMGWSRQAPGKESEMVAAISSGGSTNYADSVKGRFTISRDNAKNTVYLQMNSLKPEDTAVDYCAKSIDGWYWRRRRYDYWGQGTQVTVSS | low polyreactivity
11 | QVQLVESGGGLVQAGGSLRLSCAASGSTLQVYARGWYRQAPGKERELVAASSKSGGRTYYADSVKGRFTISRDNAKNTVYLQMNSLKPEDTAVYYCAADVGTAQSTYGYWGQGTQVTVSS | high polyreactivity
12 | QVQLVESGGGLVQAGGSLRLSCAASGLTFVGNAMGWYRQAPGKERELVASITIGTSTYYADSVKGRFTISRDNAKNTVYLQMNRLKPEDTAVYYCAAEEVFQVYGLALIYDYWGQGTQVTVSS | high polyreactivity
13 | QVQLVESGGGLDQAGGSLRLRCAASGRNFRWYTMVWYRQAPGKEREFVAAITWSDTSTSYADSVKGRFTISRDNAKNTVYLQMNSLIPEYTAVYYCNAGDKVSSYWYDYWGQGTQVNVSS | low polyreactivity
14 | QVQLVESGGGLVQAGGSLRLSCAASGRIFTPYARGWYRQAPGKERELVAAISGRGGSTYYADSVKGRFTISRDNAKNTVYLQMNSLKPEDTAVYYCAATYFYVYDYGLDYWGQGTQVTVSS | high polyreactivity
15 | QVQLVESGGGLVQAGGSLRLSCAASGFTFGRNAMGWYRQAPGKEREFVAAISKSGTSTYYADSVKGRFTISRDNAKNTVYLQMNSLKPEDTAVYYCARTIYAKRWDFDYWGQGTQVTVSS | low polyreactivity
16 | QVQLVESGGVLVQAGGSLRLSCAASGGIFQGNVMGWYRQAPGKERELVASIRRGGSTNYADSVKGPFTISRDNAKNTVYLQMNSLKPEDTAVYYCNAAFYKEYYYWGQGTQVTVSS | low polyreactivity
17 | QVQLVESGGGLVQAGGSLRLSCAASGSTFTLYAMGWYRQAPGKERELVATITGSGGSTNYADSVKGRFTISRDNAKNTVYLQMNSLKPEDTAVYYCAADYAVYSFTEFNYWGQGSQVTVSS | high polyreactivity
18 | QGQLVESGGGLVQAGGRLRLSCAASGYNFGSYAMGWYRQAPGKERELVAAISGGGSTNYADSVKGRFTISRDNAKNTVYLQMHSLKPEDTAVYYCAAYPYLYPLRFEEYDHWGQGTQVTVSS | low polyreactivity
19 | QVQLQESGGGLVQAGGSLRLGCAASGNISDAGYMGWYRQAPGKEREFVAAIAAGSNTNYADSVKGRFTISRDNAKNTVNLQMNSLKPEDTAVFYCAVASYARVQYEYWGQGTQVTVNS | low polyreactivity
20 | QVQLVESGGGLVQAGGSLRLSCAASGFTFRYYAMGWSRQAAGKERELVATITGSGGSTYYADSVKGRFTISRDNAKNTVYLQMNSLKPEDTAVYYCNTVWYSDVRYTRFYYWGQGTQVTVSS | high polyreactivity
21 | QVQLVESGGGLVQAGGSLRLSCAASGYTIFSYGMGWYRQAPGKERELVAAISSGDRTNYADSVKGRFTISRDNAKNTVYLQMNSLKPEDTAVYYCNADRASSSVGYSDDFGHDSWGQGTQVTVSS | low polyreactivity
22 | QVQLQESGGGLVQAGGSLLSCAASGTISWVDEMGWYRQAPGNERELVAGIAGGGNTNYADSVKGRFTISRDNAKNTVYLQMNSLDTAVYSCAVVGFGRGTHIYWGQGTQVTVSS | high polyreactivity

Row | Sequence | polyreactivity (PSR sort gate)
23 | QVQLVESGGGLVQAGGSLRLSCAASGFTFYPYAMGWYRQAPGKERELVAAITSGGRTNYADSVKGRFTISRDNAKNTVYLQMNSLKPEDTAVYYCNTVSWWGRNYQDEYYYWGQGTQVTVSS | high polyreactivity
24 | QVHLVESGGGLVEAGGSLRISCAAYGFIFGYNAMGWYRQAPGKERELVARINSGGNTNYADSVKGRFTISRDNAKNTVYLQMNSLKPEDTAVYYCARDASNRYDYWGQGNQVTVSS | low polyreactivity
25 | QVQLVESGGGLVQAGGSLRLSCAASGFTYDSYAMRWYRQAPGKERELVAAITRRGGSTYYADSVKGRFTISRDNAKNTVYLQMNSLKPEDTAVYYCATLRLRSLGQRNYWGQGTQVTVSS | high polyreactivity
26 | QVQLVESGGGLVQAGGSLRLSCAASGRIFRVYAMGWYRHAPGKERELVAAISGRGGSTTYADSVKGRFTISRDNAKNTVYLQMNSLKPEDTAVYYCNTAYLAKRSGRRRFNYWGHGTQVTVSS | low polyreactivity
27 | QVQHVESAGGLVQAGGILRLSCAASGSTFVGNAMGWYRQAPGKEREWVATISNSGGRTDYADSVKGRFTISRDNAKNTVYLQMNSLKPEDTAVYYCAADHPAFGPGYSFDYWGQGTQVTVSS | low polyreactivity
28 | QVHLVESGGGLVQAGGSLRLSFAASGRTFSTNAMGWYRQAPGKERELVAAISSTGGRTYYADSVKGRFTISRDNAKNTVYLQMNSLKPEDTAVYYCNTKLKGKGEGFDYWGQGTQVTVSS | high polyreactivity
29 | QVQLVESGGGLVQAGGSLRLSCAASGSIFLSNAMGWYRQAPGKERELVASISGSGSTNYADSVKGRFTISRDNAKNTVYLQMNSLKPEDTAVYYCAAYQRYDSVTGARYEYDYWGQGTQVTVSS | low polyreactivity
30 | QVQLVESGGGLVQAGGSLRLICAASGITIKRSAMGWYRQPPGKEREFVATISQSGTSTYYADSVKGLFTISRDNAKNTVYLQMNSLKPEDTAVYYCAADYIGYWYGYYSWGHGTQVTVSS | low polyreactivity
31 | QVQLVESGGGLVQAGGSLRLSCAASGRIFIRNDMGWYRQAPGKERELVAVITRSGGRTYYADSVKGRFTISRDNAKNTVYLQMNSLKPEDTAVYYCAKRQAFKQAPYEYWGQGTQVTVSS | low polyreactivity
32 | QVQLVESGGGLVQAGGSLRLSCAASGSTFVRYAMGWYRQAPGKERELVAAISNGGNTYYADSVKGRFTISHDNAKNTVYLQMNSLKPEDTAVYYCNKGYVYGHEYWGQGTQVTVSS | high polyreactivity
33 | QVQLVESGGGLVQEGGSLRLSCAASGLIFPSYARGWYRPAPGKERELVAGINTGGSTNYADSVKGRFTISRDNAKNTVSLQMNSQKPEDTAVYYCAKDNNYYWYVSPRDYWGLGTQVTVSS | low polyreactivity
34 | HVQLVESGGGLVQEGGSLRLSCAASGSILNQNAMGWYRQARGKERELVASISWDGDRTYYADSVKGRFTISRDNAKNTVYLQMNSLKPEDTAVYYCAASFYGIDRMGYWGQGTQVTVSS | low polyreactivity
35 | QVQLVESGGGLVQAGGSLRLSCAASGRTFVRYAMGWYRQAPGKERELVAAISQSGGDTYYADSVKGRFTISRDNAKNTVYLQMNSLKPEDTPVYYCAARSDDVSRYGYWGQGTQVTVSS | low polyreactivity
36 | QVQLVESGGGLVQAGGSLRLSCAASGLSFQSYAMGWYRQAPGKERELVAAISRRSGSTYYADSVKGRFTISRDNAKNTVYLQMNSLKPEDTAVYYCTTRRGERGYWGQGTQVTVSS | high polyreactivity
37 | QFQLVESGGGLVQAGGSLRLSCAASGRTFIYYSMGWYRQAPGKERELVAAITRSGGSTNYADSVKGRFTISRDNSKNTVYIQMNSLKPEDTAVYYCAARFYGRRCIYGYWGQGTQVTVSS | high polyreactivity
38 | QVQLVESGGGLVQAGGSLRLSCAASGSTFYPYTMGWYRQAPGKERELVASISTTGGSTNYADSVKGRFTISRDNAKNTVYLQMNSLKPEDTAVYYCAARSNYTRRLYYYYWGLGTQVTVSS | high polyreactivity
39 | QVQLVESGGGLVQAGGSLRLSCAASGFTCTRNAMGWFRQAPGKERELVAAISSSAGSTSYADSVKGRFTISRDNAKNTDYLQMNSLKPEDTAVYYCATEGSYYSWVGKVGYRYQYHYWGQGTQVTVSS | high polyreactivity
40 | QVQLVESGRGLVQAGGSLRLSCAASGYTFSNYGMGWYRQAPGKERELVAGIILGGSSTYYADSVKGRFTISRDNAKNTVYLQMNSLKPEDTAVYYCAAYVTGRYDWGQGTQVTVSS | high polyreactivity
41 | QVQLVESGGGLVQAGGSLRLSCAASGSTFSRYAMGWSRQAPGKERELVAAISWSGGSTYYAVSVKGRFTISRDNAKNTVYLQMISLKPEDTAVYYCAAYTYSFRANHDYWGQGTQVTVSS | high polyreactivity
42 | QVQLVESGGGLVQAGGSLRLICAASGRIFYDNALGWYRQAPGKERELVAAISESGTSTYYADSVKGRFTISRDNAKNTVYLQMNSLKPEDTAVYYCAAYFTWNRKVFYYWGQGTQVTVSS | high polyreactivity
43 | QVQLVESGGGLVHAGGSHRLSCAASGLIFYDNMGWYRQAPGKERELVAAISSSGGSTSYADSVKGRFTISRDNAKNTVYLQMNSLKPEDTAVYYCAADSYPAYLGFVGFDYWGQGTQVTVSS | low polyreactivity
